Substrate: Nc1c(Cl)cccc1-c1cc[nH]c1
Experiment: purified protein
Assay type: biochemical, Pseudomonas fluorescens
Details: E. coli Fre 2.5 μM, FAD 1 μM, MgCl2 10 mM, NADH 2.5 mM, 20 mM Tris pH 7.4, PrnC 2.5 μM, chlorination

B1: PrnC (NT11-PrnC-6His; native PrnC) (Pseudomonas fluorescens) (protein)
chain: MTQKSPANEHDSNHFDVIILGSGMSGTQMGAILAKQQFRVLIIEESSHPRFTIGESSIPETSLMNRIIADRYGIPELDHITSFYSTQRYVASSTGIKRNFGFVFHKPGQEHDPKEFTQCVIPELPWGPESHYYRQDVDAYLLQAAIKYGCKVHQKTTVTEYHADKDGVAVTTAQGERFTGRYMIDCGGPRAPLATKFKLREEPCRFKTHSRSLYTHMLGVKPFDDIFKVKGQRWRWHEGTLHHMFEGGWLWVIPFNNHPRSTNNLVSVGLQLDPRVYPKTDISAQQEFDEFLARFPSIGAQFRDAVPVRDWVKTDRLQFSSNACVGDRYCLMLHANGFIDPLFSRGLENTAVTIHALAARLIKALRDDDFSPERFEYIERLQQKLLDHNDDFVSCCYTAFSDFRLWDAFHRLWAVGTILGQFRLVQAHARFRASRNEGDLDHLDNDPPYLGYLCADMEEYYQLFNDAKAEVEAVSAGRKPADEAAARIHALIDERDFAKPMFGFGYCITGDKPQLNNSKYSLLPAMRLMYWTQTRAPAEVKKYFDYNPMFALLKAYITTRIGLALKK
notes: N-terminal 11-residue NT11 solubility tag and C-terminal 6His tag, pET-28a(+), expressed in E. coli T7 Express, Ni-NTA purified; dimer by cryo-EM
Km: 15.8 ± 0.7 µM | kcat: 0.00767 s⁻¹
